Data taken from paper PMC3192995.

Tests used:
Assay in all cases: two-hybrid
[1] = target: PwHAP5, full-length coding region, fused in pGBKT7 (yeast two-hybrid bait) (Picea wilsonii)
[2] = target: PwHAP5 C130, residues 92-221, fused in pGBKT7 (yeast two-hybrid bait) (Picea wilsonii)
[3] = target: PwHAP5 N77, residues 1-77, fused in pGBKT7 (yeast two-hybrid bait) (Picea wilsonii)

- fold beta-galactosidase activity over the controls [1]: 20 fold
- fold beta-galactosidase activity over the controls [2]: 20 fold
- fold beta-galactosidase activity over the controls [3]: 20 fold
Substance: PwFKBP12 in pGADT7-Rec (yeast two-hybrid prey) (natural protein)
